B3: His6-tagged Sly1p (natural protein)
chain: MAVEEIASRKDISLRDMQISAILKMLFLNKDLNNNDNITTITDDIFNQQEIIWKVLILDIKSTATISSVLRVNDLLKAGITVHSLIKQDRSPLPDVPAIYFVSPTKENIDIIVNDLKSDKYSEFYINFTSSLPRNLLEDLAQQVSITGKSDKIKQVYDQYLDFIVTEPELFSLEISNAYLTLNDPKTTEEEITGLCANIADGLFNTVLTINSIPIIRAAKGGPAEIIAEKLGTKLRDFVINTNSSSTSTLQGNDSLERGVLIILDRNIDFASMFSHSWIYQCMVFDIFKLSRNTVTIPLESKENGTDNTTAKPLATKKYDIEPNDFFWMENSHLPFPEAAENVEAALNTYKEEAAEITRKTGVTNISDLDPNSNNDTVQIQEVVKKLPELTAKKNTIDTHMNIFAALLSQLESKSLDTFFEVEQDPGSTKTRSRFLDILKDGKTNNLEDKLRSFIVLYLTSTTGLPKDFVQNVENYFKENDYDINALKYVYKLREFMQLSNMSLQNKSLEDGSDSAFKPSNLTLSGIYGLTEGKLQGGVGSLISGIKKLLPEKKTIPITNVVDAIMDPLNSSQKNLETTDSYLYIDPKITRGSHTRKPKRQSYNKSLVFVVGGGNYLEYQNLQEWAHSQLHNPKKVMYGSTAITTPAEFLNEISRLGASNSSNNDA

The assay “His6-tagged Sly1p” has as its target B3. Nature of the assay: co-sedimentation.
In assay [1] the target is mixed 3Q-SNARE set Sed5p/Vti1p/Bet1p reconstituted on proteoliposomes (S. cerevisiae, UniProt Q01590;Q04338;P22804). In words: co-sedimentation.
Assay [2] concerns the target mixed 3Q-SNARE set Sed5p/Vti1p/Vam7p reconstituted on proteoliposomes (S. cerevisiae, UniProt Q01590;Q04338;P32912). Nature of the assay: co-sedimentation.
Assay [3] deals with T1, ER-Golgi 3Q-SNARE set Sed5p/Bos1p/Bet1p reconstituted on proteoliposomes (S. cerevisiae, UniProt Q01590;P25385;P22804).
T1 sequence 1: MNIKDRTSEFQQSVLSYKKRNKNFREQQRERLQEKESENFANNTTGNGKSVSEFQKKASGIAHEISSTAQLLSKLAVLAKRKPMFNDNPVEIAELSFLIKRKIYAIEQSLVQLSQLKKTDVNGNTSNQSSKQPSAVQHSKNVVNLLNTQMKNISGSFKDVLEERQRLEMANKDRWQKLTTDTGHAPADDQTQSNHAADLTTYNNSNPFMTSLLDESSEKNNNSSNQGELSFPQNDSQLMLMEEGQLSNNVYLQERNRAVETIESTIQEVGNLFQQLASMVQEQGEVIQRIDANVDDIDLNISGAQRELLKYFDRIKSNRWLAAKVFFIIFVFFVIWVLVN
T1 sequence 2: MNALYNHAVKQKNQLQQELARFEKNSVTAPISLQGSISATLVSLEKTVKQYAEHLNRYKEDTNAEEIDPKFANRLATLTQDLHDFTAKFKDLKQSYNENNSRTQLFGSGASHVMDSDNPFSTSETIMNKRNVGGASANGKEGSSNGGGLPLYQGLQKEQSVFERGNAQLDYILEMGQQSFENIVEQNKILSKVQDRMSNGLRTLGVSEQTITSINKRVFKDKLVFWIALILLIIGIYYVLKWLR
T1 sequence 3: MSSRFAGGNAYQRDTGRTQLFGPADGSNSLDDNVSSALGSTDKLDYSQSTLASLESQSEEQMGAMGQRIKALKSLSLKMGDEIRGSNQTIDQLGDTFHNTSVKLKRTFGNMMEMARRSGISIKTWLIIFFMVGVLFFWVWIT
Nature of the assay: co-sedimentation.

Assay [4] deals with T2, mixed 3Q-SNARE set Sed5p/Gos1p/Bet1p reconstituted on proteoliposomes (S. cerevisiae, UniProt Q01590;P38736;P22804).
T2 sequence 1: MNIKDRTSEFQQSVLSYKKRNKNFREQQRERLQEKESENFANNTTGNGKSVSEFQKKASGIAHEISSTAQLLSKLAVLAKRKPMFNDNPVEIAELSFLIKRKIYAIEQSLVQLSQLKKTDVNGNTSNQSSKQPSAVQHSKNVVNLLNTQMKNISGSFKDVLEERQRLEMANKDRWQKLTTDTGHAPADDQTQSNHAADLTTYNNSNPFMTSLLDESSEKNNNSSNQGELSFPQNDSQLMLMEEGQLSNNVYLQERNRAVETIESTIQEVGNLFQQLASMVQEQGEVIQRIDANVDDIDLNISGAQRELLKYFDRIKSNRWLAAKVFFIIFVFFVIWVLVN
T2 sequence 2: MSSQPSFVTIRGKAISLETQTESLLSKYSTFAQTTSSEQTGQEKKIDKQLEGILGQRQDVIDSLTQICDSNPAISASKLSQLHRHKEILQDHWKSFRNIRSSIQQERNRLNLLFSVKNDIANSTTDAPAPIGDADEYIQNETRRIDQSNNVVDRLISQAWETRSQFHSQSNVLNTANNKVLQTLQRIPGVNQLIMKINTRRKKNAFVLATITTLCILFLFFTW
T2 sequence 3: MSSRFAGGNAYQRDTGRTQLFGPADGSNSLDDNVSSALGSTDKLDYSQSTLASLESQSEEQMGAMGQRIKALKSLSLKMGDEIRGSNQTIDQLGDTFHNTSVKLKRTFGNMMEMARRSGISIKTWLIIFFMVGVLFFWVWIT
In words: co-sedimentation.

Assay [5] has as its target T3, pre-assembled intra-Golgi cis-QabcR-SNARE complex GST-Sec22p/Sed5p/Gos1p/Sft1p (S. cerevisiae, UniProt P22214;Q01590;P38736;P43682).
T3 sequence 1: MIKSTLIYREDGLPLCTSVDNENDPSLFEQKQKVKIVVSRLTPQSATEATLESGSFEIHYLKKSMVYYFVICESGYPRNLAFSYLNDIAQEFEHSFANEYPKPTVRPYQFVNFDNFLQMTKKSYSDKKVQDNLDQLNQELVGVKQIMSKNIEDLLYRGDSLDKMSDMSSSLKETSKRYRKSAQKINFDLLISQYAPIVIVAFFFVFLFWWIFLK
T3 sequence 2: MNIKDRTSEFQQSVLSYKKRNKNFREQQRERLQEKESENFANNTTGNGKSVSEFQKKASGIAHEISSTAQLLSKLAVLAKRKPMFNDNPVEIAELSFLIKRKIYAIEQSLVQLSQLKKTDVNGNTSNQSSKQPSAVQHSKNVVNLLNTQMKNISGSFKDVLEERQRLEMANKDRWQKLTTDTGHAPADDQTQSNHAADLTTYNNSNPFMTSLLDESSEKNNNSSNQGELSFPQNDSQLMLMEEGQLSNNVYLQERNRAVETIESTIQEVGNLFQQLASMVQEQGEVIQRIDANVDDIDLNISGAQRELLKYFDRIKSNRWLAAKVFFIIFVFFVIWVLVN
T3 sequence 3: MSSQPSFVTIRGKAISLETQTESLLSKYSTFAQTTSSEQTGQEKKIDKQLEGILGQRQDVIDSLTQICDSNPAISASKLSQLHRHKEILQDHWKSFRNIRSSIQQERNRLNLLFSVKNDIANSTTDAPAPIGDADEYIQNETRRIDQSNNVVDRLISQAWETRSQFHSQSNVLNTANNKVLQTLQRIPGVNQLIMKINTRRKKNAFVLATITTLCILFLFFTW
T3 sequence 4: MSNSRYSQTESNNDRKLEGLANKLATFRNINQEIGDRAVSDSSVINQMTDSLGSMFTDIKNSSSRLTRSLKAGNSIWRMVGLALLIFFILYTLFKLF
In words: pull-down.

Assay [6] deals with T4, pre-assembled ER-Golgi cis-QabcR-SNARE complex GST-Sec22p/Sed5p/Bos1p/Bet1p (S. cerevisiae, UniProt P22214;Q01590;P25385;P22804).
T4 sequence 1: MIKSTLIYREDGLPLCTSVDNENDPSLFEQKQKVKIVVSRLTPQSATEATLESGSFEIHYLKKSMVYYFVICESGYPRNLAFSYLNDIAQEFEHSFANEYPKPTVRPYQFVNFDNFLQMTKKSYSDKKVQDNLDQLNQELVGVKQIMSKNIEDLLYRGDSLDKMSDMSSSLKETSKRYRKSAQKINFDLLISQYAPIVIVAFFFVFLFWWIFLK
T4 sequence 2: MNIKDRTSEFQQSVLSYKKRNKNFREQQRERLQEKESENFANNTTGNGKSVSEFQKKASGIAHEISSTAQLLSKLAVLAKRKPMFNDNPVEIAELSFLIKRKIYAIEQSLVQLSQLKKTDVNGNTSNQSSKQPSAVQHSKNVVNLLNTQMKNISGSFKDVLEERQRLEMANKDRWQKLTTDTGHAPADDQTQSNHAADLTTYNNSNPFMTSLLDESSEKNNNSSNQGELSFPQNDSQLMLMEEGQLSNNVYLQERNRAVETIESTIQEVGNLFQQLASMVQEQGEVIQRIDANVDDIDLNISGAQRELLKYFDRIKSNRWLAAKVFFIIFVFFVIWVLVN
T4 sequence 3: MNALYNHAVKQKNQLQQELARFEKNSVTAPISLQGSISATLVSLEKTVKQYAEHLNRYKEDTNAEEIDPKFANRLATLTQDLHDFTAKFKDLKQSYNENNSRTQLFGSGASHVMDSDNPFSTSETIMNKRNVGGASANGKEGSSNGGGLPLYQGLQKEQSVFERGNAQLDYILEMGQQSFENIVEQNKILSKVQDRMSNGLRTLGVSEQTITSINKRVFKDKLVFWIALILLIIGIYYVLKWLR
T4 sequence 4: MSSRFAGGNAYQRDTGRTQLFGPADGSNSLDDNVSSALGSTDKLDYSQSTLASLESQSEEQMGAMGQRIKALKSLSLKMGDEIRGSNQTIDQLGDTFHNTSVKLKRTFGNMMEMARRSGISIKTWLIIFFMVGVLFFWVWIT
In words: pull-down.

Sequence of mixed 3Q-SNARE set Sed5p/Vti1p/Vam7p reconstituted on proteoliposomes (P32912 whole entry, one chain of several): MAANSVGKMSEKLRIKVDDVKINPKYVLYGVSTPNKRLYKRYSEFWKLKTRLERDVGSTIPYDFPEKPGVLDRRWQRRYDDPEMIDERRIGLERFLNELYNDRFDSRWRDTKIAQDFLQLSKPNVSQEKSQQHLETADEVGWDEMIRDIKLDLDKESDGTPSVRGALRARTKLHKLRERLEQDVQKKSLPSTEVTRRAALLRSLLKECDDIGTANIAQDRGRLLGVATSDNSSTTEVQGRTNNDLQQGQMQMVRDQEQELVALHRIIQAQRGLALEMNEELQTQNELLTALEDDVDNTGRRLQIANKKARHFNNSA

B1: intra-Golgi 3Q-SNARE set Sed5p/Gos1p/Sft1p reconstituted on proteoliposomes (complex)
chain 1: MNIKDRTSEFQQSVLSYKKRNKNFREQQRERLQEKESENFANNTTGNGKSVSEFQKKASGIAHEISSTAQLLSKLAVLAKRKPMFNDNPVEIAELSFLIKRKIYAIEQSLVQLSQLKKTDVNGNTSNQSSKQPSAVQHSKNVVNLLNTQMKNISGSFKDVLEERQRLEMANKDRWQKLTTDTGHAPADDQTQSNHAADLTTYNNSNPFMTSLLDESSEKNNNSSNQGELSFPQNDSQLMLMEEGQLSNNVYLQERNRAVETIESTIQEVGNLFQQLASMVQEQGEVIQRIDANVDDIDLNISGAQRELLKYFDRIKSNRWLAAKVFFIIFVFFVIWVLVN
chain 2: MSSQPSFVTIRGKAISLETQTESLLSKYSTFAQTTSSEQTGQEKKIDKQLEGILGQRQDVIDSLTQICDSNPAISASKLSQLHRHKEILQDHWKSFRNIRSSIQQERNRLNLLFSVKNDIANSTTDAPAPIGDADEYIQNETRRIDQSNNVVDRLISQAWETRSQFHSQSNVLNTANNKVLQTLQRIPGVNQLIMKINTRRKKNAFVLATITTLCILFLFFTW
chain 3: MSNSRYSQTESNNDRKLEGLANKLATFRNINQEIGDRAVSDSSVINQMTDSLGSMFTDIKNSSSRLTRSLKAGNSIWRMVGLALLIFFILYTLFKLF
In the case of B1, the binding result in the assay with His6-tagged Sly1p was “binds”.

B2: mixed 3Q-SNARE set Sed5p/Vti1p/Tlg1p reconstituted on proteoliposomes (complex)
chain 1: MNIKDRTSEFQQSVLSYKKRNKNFREQQRERLQEKESENFANNTTGNGKSVSEFQKKASGIAHEISSTAQLLSKLAVLAKRKPMFNDNPVEIAELSFLIKRKIYAIEQSLVQLSQLKKTDVNGNTSNQSSKQPSAVQHSKNVVNLLNTQMKNISGSFKDVLEERQRLEMANKDRWQKLTTDTGHAPADDQTQSNHAADLTTYNNSNPFMTSLLDESSEKNNNSSNQGELSFPQNDSQLMLMEEGQLSNNVYLQERNRAVETIESTIQEVGNLFQQLASMVQEQGEVIQRIDANVDDIDLNISGAQRELLKYFDRIKSNRWLAAKVFFIIFVFFVIWVLVN
chain 2: MSSLLISYESDFKTTLEQAKASLAEAPSQPLSQRNTTLKHVEQQQDELFDLLDQMDVEVNNSIGDASERATYKAKLREWKKTIQSDIKRPLQSLVDSGDRDRLFGDLNASNIDDDQRQQLLSNHAILQKSGDRLKDASRIANETEGIGSQIMMDLRSQRETLENARQTLFQADSYVDKSIKTLKTMTRRLVANKFISYAIIAVLILLILLVLFSKFK
chain 3: […]
As to B2, the binding result with His6-tagged Sly1p is recorded as “binds”.
Consider B3, for which the binding result in assay [1], in assay [2], in assay [3], in assay [4], in assay [5] and in assay [6] was “binds” each time.
